Positions count from the first letter of the chain named.

For test [1], the target named is T1, extracellular domain of human IL12Rb2 (amino acids 24-622 of hIL12Rb2, UniProt Q99665) (human, UniProt Q99665 24-622).
T1 construct: also called hIL12Rb2 ECD; hIL12Rb2-ECD
T1 sequence: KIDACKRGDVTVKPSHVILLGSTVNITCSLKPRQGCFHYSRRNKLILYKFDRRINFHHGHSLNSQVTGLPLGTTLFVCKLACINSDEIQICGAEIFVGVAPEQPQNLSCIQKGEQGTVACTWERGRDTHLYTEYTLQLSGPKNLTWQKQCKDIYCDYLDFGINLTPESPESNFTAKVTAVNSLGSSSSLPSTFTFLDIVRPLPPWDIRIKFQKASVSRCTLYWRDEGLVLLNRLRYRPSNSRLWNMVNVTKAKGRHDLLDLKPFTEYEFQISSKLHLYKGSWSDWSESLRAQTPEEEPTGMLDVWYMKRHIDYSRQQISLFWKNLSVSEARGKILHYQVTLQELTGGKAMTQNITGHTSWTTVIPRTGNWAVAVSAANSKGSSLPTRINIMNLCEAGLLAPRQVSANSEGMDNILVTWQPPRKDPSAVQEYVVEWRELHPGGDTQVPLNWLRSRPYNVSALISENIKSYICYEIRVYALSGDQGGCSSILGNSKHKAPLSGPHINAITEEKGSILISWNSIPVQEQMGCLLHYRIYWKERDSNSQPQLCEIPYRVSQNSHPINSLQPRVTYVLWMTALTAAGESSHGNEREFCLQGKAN
Briefly: periplasmic extract ELISA on antigen-coated plate; positive if A450 at least threefold over PBS-coated control. The procedure: (§1) Upon completion of the biopanning of Example 3, three 96-well plates of individual phage clones were isolated in order to perform periplasmic extract ELISA (PE-ELISA) on IL12Rb2 coated plates to identify positive VHH binders that selectively bound IL12Rb2. A 96-well plate was coated with IL12Rb2 and PBS under the same conditions. Next, wells were blocked at 37° C. for 1 h. Then, 100 μl of extracted antibodies was added to each well and incubated for 1 h. Subsequently, 100 μl of anti-tag polyclonal antibody conjugated to HRP was added to each well and incubated at 37° C. for 1 h. Plates were developed with TMB substrate. The reaction was stopped by the addition of H2SO4. Absorbance at 450 nm was read on a microtiter plate reader. Antibodies with absorbance of the antigen-coated well at least threefold greater than PBS-coated control are VHHs that specifically bind to IL 12Rb2. Positive clones were sequenced, and sequences analyzed to identify unique clonotypes

Test [2] addresses T2, extracellular domain of mouse IL12Rb2 (614 amino acids, amino acids 24-637 of the mIL12Rb2 precursor, UniProt … (mouse, UniProt P97378 24-637)).
T2 construct: also called mIL12Rb2 ECD; mIL12Rb2 ECD antigen
T2 sequence: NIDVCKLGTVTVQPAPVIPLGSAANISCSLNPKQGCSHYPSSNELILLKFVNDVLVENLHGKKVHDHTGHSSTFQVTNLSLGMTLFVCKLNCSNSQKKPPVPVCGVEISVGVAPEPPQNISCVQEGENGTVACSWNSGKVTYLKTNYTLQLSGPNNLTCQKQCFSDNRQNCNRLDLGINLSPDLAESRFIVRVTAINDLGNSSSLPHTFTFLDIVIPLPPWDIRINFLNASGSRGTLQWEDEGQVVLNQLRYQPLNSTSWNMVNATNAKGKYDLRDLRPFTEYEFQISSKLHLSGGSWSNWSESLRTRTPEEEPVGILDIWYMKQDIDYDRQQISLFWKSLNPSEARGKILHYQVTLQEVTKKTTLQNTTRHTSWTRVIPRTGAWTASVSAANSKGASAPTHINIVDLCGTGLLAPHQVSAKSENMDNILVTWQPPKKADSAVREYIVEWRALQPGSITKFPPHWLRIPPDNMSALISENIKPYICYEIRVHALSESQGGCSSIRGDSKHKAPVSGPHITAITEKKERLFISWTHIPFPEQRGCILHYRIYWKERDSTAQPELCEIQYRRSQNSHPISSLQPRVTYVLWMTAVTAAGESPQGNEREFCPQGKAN
The description is as above. As for the experimental part:
as §1

B1: VHH2 (VHH)
VHH: QVQLQESGGGSVQAGGSLRLSCAASGFTISRYCMGWLRQAPGKQREGVAIIERDGRTGYADSVKGRFTISKDNAKNTLYLQMNSLKPEDTAMYYCGAIEGSCRPDFGYRGQGTQVTVSS
notes: Camel VHH, tested as a periplasmic extract of a phage clone; also called anti-human IL12Rb2 VHH2; hIL12Rb2 VHH; not shown: HA/His tag encoded by the pMECS phagemid
Take B1: the binding result in test [1] was “binds”.

B2: VHH11 (VHH)
VHH: B1 VHH with I29V, N73D
notes: Camel VHH, tested as a periplasmic extract of a phage clone; also called anti-human IL12Rb2 VHH11; hIL12Rb2 VHH; not shown: HA/His tag encoded by the pMECS phagemid
For the molecule B2, the binding result in test [1] was “binds”.

B3: VHH4 (VHH)
VHH: B1 VHH with A23V, E88G
notes: Camel VHH, tested as a periplasmic extract of a phage clone; also called anti-human IL12Rb2 VHH4; hIL12Rb2 VHH; not shown: HA/His tag encoded by the pMECS phagemid
Turning to B3, in test [1], the binding result is recorded as “binds”.

B4: VHH9 (VHH)
VHH: B1 VHH with Y94F
notes: Camel VHH, tested as a periplasmic extract of a phage clone; also called anti-human IL12Rb2 VHH9; hIL12Rb2 VHH; not shown: HA/His tag encoded by the pMECS phagemid
Regarding B4, the binding result in test [1] is recorded as “binds”.

B5: VHH8 (VHH)
VHH: B1 VHH with I29V, D54E
notes: Camel VHH, tested as a periplasmic extract of a phage clone; also called anti-human IL12Rb2 VHH8; hIL12Rb2 VHH; not shown: HA/His tag encoded by the pMECS phagemid
For the molecule B5, the binding result in test [1] is given as “binds”.

B6: VHH10 (VHH)
VHH: B1 VHH with I29V, S30T
notes: Camel VHH, tested as a periplasmic extract of a phage clone; also called anti-human IL12Rb2 VHH10; hIL12Rb2 VHH; not shown: HA/His tag encoded by the pMECS phagemid
On to B6, for which the binding result in test [1] is listed as “binds”.

B7: VHH1 (VHH)
VHH: B1 VHH with I29V, S30T
notes: Camel VHH, tested as a periplasmic extract of a phage clone; also called anti-human IL12Rb2 VHH1; hIL12Rb2 VHH; not shown: HA/His tag encoded by the pMECS phagemid
Turning to B7, the binding result in test [1] is listed as “binds”.

B8: VHH13 (VHH)
VHH: B1 VHH with R31K
notes: Camel VHH, tested as a periplasmic extract of a phage clone; also called anti-human IL12Rb2 VHH13; hIL12Rb2 VHH; not shown: HA/His tag encoded by the pMECS phagemid
As to B8, in test [1], the binding result was “binds”.

B9: VHH17 (VHH)
VHH: B1 VHH with F27L
notes: Camel VHH, tested as a periplasmic extract of a phage clone; also called anti-human IL12Rb2 VHH17; hIL12Rb2 VHH; not shown: HA/His tag encoded by the pMECS phagemid
As to B9, the binding result in test [1] is “binds”.

B10: mIL12Rb2 VHH10 (VHH)
VHH: QVQLQESGGGSVQAGGSLRLSCAASGYTFSNHHMGWFRQAPGKEREGVAAIYTGAGNIYYADSVKDRFTISKDTAKNTLYLQMNSLTPEDTGMYYCAADLTRWYSGGWRDPRGYKYWGQGTQVTVSS
notes: Camel VHH, tested as a periplasmic extract of a phage clone; also called anti-mouse IL12Rb2 VHH10; not shown: HA/His tag encoded by the pMECS phagemid
Turning to B10, the binding result in test [2] is given as “binds”.

B11: mIL12Rb2 VHH12 (VHH)
VHH: B10 VHH with S11V, A14P
notes: Camel VHH, tested as a periplasmic extract of a phage clone; also called anti-mouse IL12Rb2 VHH12; not shown: HA/His tag encoded by the pMECS phagemid
With B11, the binding result in test [2] was “binds”.

B12: mIL12Rb2 VHH13 (VHH)
VHH: B10 VHH with A24V
notes: Camel VHH, tested as a periplasmic extract of a phage clone; also called anti-mouse IL12Rb2 VHH13; not shown: HA/His tag encoded by the pMECS phagemid
For the molecule B12, the binding result in test [2] is “binds”.

B13: mIL12Rb2 VHH11 (VHH)
VHH: B10 VHH with S11P
notes: Camel VHH, tested as a periplasmic extract of a phage clone; also called anti-mouse IL12Rb2 VHH11; not shown: HA/His tag encoded by the pMECS phagemid
In the case of B13, in test [2], the binding result was “binds”.

B14: mIL12Rb2 VHH6 (VHH)
VHH: QVQLQESGGGSVQAGGSLRLSCAVSGKAYGGAWFRQAQGKGREGVAAIWIGTGTTFYADSVKGRFTISRDNAKNTVYLQMDGLKPEDTAVYYCAADDRPGYRDPLAPVSYNHWGQGTQVTVSS
notes: Camel VHH, tested as a periplasmic extract of a phage clone; also called anti-mouse IL12Rb2 VHH6; not shown: HA/His tag encoded by the pMECS phagemid
Consider B14, for which, in test [2], the binding result is “binds”.

B15: mIL12Rb2 VHH7 (VHH)
VHH: B14 VHH with R19K, K27N, A28P, G41S, I50L, L78V, M80I, V90M
notes: Camel VHH, tested as a periplasmic extract of a phage clone; also called anti-mouse IL12Rb2 VHH7; not shown: HA/His tag encoded by the pMECS phagemid
Consider B15, for which the binding result in test [2] is “binds”.

Source of the values: patent publication US20230357414A1 (SYNTHEKINE, published 2023).
